Laboratory results as given in the supplement of paper PMC6757056.
± gives the standard deviation of the averaged measurements.

B1: library; a variant is named by its letters at N, in order (parent)
chain: GCUGUCACCGGAAUACCAGCAUCGUCUUGAUGCCCUUGGAAGUCCGGUCUGAUGAGUCCNNNNNGGACGAAACAGC

Experiments:
theophylline [1] = variants of: B1; test: FACS-Seq fitted mean relative fluorescence mCherry/BFP without ligand (log10 relative fluorescence); higher = higher reporter protein expression; conditions: HEK293T, ligand present: no
Method: (§1)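 Hammerhead (sTRSV) ribozyme switch libraries with a ligand aptamer grafted on stem I and a randomized N4-6 loop II, cloned into the 3' UTR of mCherry and transiently transfected into HEK293T cells; RNA-Seq 72 h post transfection with ligand added 1 h before transfection; RNA read count / plasmid DNA read count normalized to the non-cleaving sTRSVctl (x100), log10; sequences with >100 DNA reads. FACS-Seq: lentiviral library sorted into 6 bins after 48 h ligand, log-normal fit mean of mCherry/BFP scaled to controls. Printed sequences are partial switch sequences.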

theophylline [2] = variants of: B1; test: normalized RNA/DNA level with ligand (relative to sTRSVctl = 100) (log10 (% of sTRSVctl)); higher = less ribozyme self-cleavage, higher mRNA level; conditions: ligand concentration (+) RNA-Seq: 5 mM, HEK293T, reporter: mCherry (pCS4076), ligand present: yes
Method: as §1

theophylline [3] = variants of: B1; test: normalized RNA/DNA level without ligand (relative to sTRSVctl = 100) (log10 (% of sTRSVctl)); higher = less ribozyme self-cleavage, higher mRNA level; conditions: HEK293T, reporter: mCherry (pCS4076), ligand present: no
Method: as §1

theophylline [4] = variants of: B1; test: FACS-Seq fitted mean relative fluorescence mCherry/BFP with ligand (log10 relative fluorescence); ligand concentration (+) FACS-Seq: 1 mM; higher = higher reporter protein expression; conditions: HEK293T, ligand present: yes
Method: as §1

Variant | FACS-Seq fitted mean (log10) (theophylline [1]) | normalized RNA/DNA level with ligand (log10) (theophylline [2]) | normalized RNA/DNA level without ligand (log10) (theophylline [3]) | FACS-Seq fitted mean (log10) (theophylline [4])
CGAUC | 0.533 ± 0.1 | 1.927 ± 0.016 | 1.84 ± 0.089 | 0.495 ± 0.065
UCCUU | 0.983 ± 0.13 | 2.011 ± 0.0076 | 1.94 ± 0.053 | 1.01 ± 0.082
ACCUG | 1.02 ± 0.063 | 2.01 ± 0.025 | 1.89 ± 0.043 | 0.898 ± 0.044
ACCUA | 1.18 ± 0.18 | 1.94 ± 0.021 | 1.88 ± 0.16 | 1.136 ± 0.0083
UUAGC | 0.886 ± 0.052 | 1.97 ± 0.029 | 1.94 ± 0.042 | 0.916 ± 0.035
CUUUU | 1.04 ± 0.014 | 1.992 ± 0.0085 | 1.91 ± 0.045 | 1.15 ± 0.12
UUACC | 0.865 ± 0.28 | 2.02 ± 0.022 | 1.96 ± 0.095 | 0.847 ± 0.12
UGGUU | 0.9379 ± 0.005 | 2.042 ± 0.011 | 1.846 ± 0.0051 | 1.01 ± 0.049
CGGUC | 1.07 ± 0.037 | 1.98 ± 0.051 | 1.82 ± 0.076 | 1.13 ± 0.05
AAAAC | 0.834 ± 0.057 | 1.944 ± 0.014 | 1.77 ± 0.066 | 0.873 ± 0.075
UCAGU | 0.741 ± 0.036 | 2.011 ± 0.018 | 1.875 ± 0.018 | 0.752 ± 0.097
CGCCC | 0.615 ± 0.021 | 2.01 ± 0.14 | 2.02 ± 0.04 | 0.725 ± 0.098
CUGGA | 1.07 ± 0.09 | 2.02 ± 0.043 | 1.84 ± 0.095 | 1.09 ± 0.045
ACAAA | 0.425 ± 0.062 | 2 ± 0.045 | 1.44 ± 0.11 | 0.7048 ± 0.0042
CUCUC | 0.298 ± 0.1 | 2.03 ± 0.027 | 1.95 ± 0.045 | 0.448 ± 0.12
AGAAG | 0.448 ± 0.033 | 1.93 ± 0.025 | 1.61 ± 0.17 | 0.576 ± 0.014
AUUUU | 0.213 ± 0.053 | 2.02 ± 0.043 | 1.88 ± 0.062 | 0.194 ± 0.022
CAAUA | 0.192 ± 0.018 | 1.96 ± 0.054 | 1.16 ± 0.17 | 0.785 ± 0.033

Variant | FACS-Seq fitted mean (log10) (theophylline [1]) | normalized RNA/DNA level with ligand (log10) (theophylline [2]) | normalized RNA/DNA level without ligand (log10) (theophylline [3]) | FACS-Seq fitted mean (log10) (theophylline [4])
AACCC | 0.867 ± 0.012 | 2.042 ± 0.014 | 1.97 ± 0.031 | 0.862 ± 0.045
AGUGG | 0.488 ± 0.2 | 1.98 ± 0.064 | 1.84 ± 0.036 | 0.504 ± 0.026
CGACA | 0.409 ± 0.006 | 2.012 ± 0.02 | 1.45 ± 0.061 | 0.769 ± 0.0091
AUACA | 0.687 ± 0.07 | 1.98 ± 0.021 | 1.85 ± 0.12 | 0.796 ± 0.012
UUCCG | 0.818 ± 0.089 | 2.02 ± 0.032 | 2.017 ± 0.01 | 0.751 ± 0.086
AGAAA | -0.278 ± 0.17 | 1.853 ± 0.0095 | 1.12 ± 0.042 | 0.515 ± 0.022
AGCCG | 0.757 ± 0.026 | 1.99 ± 0.14 | 1.93 ± 0.11 | 0.782 ± 0.054
GUCUG | 0.742 ± 0.06 | 1.96 ± 0.074 | 1.87 ± 0.11 | 0.898 ± 0.069
AUGAU | 0.439 ± 0.07 | 2.01 ± 0.086 | 1.75 ± 0.12 | 0.262 ± 0.027
CCGCC | 1.17 ± 0.096 | 2.0217 ± 0.0019 | 1.96 ± 0.033 | 1.18 ± 0.036
ACACC | 0.952 ± 0.087 | 1.99 ± 0.12 | 2 ± 0.022 | 1.11 ± 0.06
ACCUC | 0.785 ± 0.011 | 2.04 ± 0.034 | 1.98 ± 0.042 | 0.737 ± 0.044
UAGCG | 1.09 ± 0.18 | 1.94 ± 0.066 | 1.9 ± 0.019 | 1.08 ± 0.016
UAUUC | 0.679 ± 0.022 | 1.99 ± 0.089 | 1.94 ± 0.11 | 0.6994 ± 0.0049
CUGAU | 1.02 ± 0.13 | 1.995 ± 0.013 | 1.7215 ± 0.00053 | 1.07 ± 0.082
CGAAC | 0.992 ± 0.11 | 1.96 ± 0.076 | 1.72 ± 0.026 | 1.02 ± 0.089
GACUU | 0.702 ± 0.12 | 2.1 ± 0.051 | 1.79 ± 0.038 | 0.696 ± 0.051
AACUG | 0.814 ± 0.11 | 2 ± 0.12 | 1.8 ± 0.18 | 0.939 ± 0.032
